{"source": "paper PMC10794413", "binders": {"B1": {"name": "free Cdc37 with the S14E phosphomimic (natural protein)", "chain": "MAIDYSKWDKIELEDDSDVEVHPNVDKKSFIKWKQQSIHEQRFKRNQDIKNLETQVDMYSHLNKRVDRILSNLPESSLTDLPAVTKFLNANFDKMEKSKGENVDPEIATYNEMVEDLFEQLAKDLDKEGKDSKSPSLIRDAILKHRAKIDSVTVEAKKKLDELYKEKNAHISSEDIHTGFDSSFMNKQKGGAKPLEATPSEALSSAAESNILNKLAKSSVPQTFIDFKDDPMKLAKETEEFGKISINEYSKSQKFLLEHLPIISEQQKDALMMKAFEYQLHGDDKMTLQVIHQSELMAYIKEIYDMKKIPYLNPMELSNVINMFFEKVIFNKDKPMGKESFLRSVQEKFLHIQKRSKILQQEEMDESNAEGVETIQLKSLDDSTELEVNLPDFNSKDPEEMKKVKVFKTLIPEKMQEAIMTKNLDNINKVFEDIPIEEAEKLLEVFNDIDIIGIKAILENEKDFQSLKDQYEQDHEDATMENLSLNDRDGGGDNHEEVKHTADTVD"}}, "target": "Hsp90 (hsp82 gene from Saccharomyces cerevisiae) with a C-terminal coiled-coil domain (Saccharomyces cerevisiae)", "data": [{"binder": "B1", "values": [{"measurement": "ATPase rate of Hsp90 with freely added Cdc37 and equimolar Ste11: Cdc37's reducing effect is abrogated", "result": 1.1, "unit": "ATP/min"}]}]}
